Changes are numbered by the printed parent chain.
B1: YW26 (antibody, V domains shown)
VH: EVQLVESGGGLVQPGGSLRLSCAASGFTFTDNWISWVRQAPGKGLEWVGVINPNSGSTDYADSVKGRFTISADTSKNTAYLQMNSLRAEDTAVYYCARDNFGGYFDYWGQGTLVTVSS
VL: DIQMTQSPSSLSASVGDRVTITCRASQDVSTAVAWYQQKPGKAPKLLIYSASFLYSGVPSRFSGSGSGTDFTLTISSLQPEDFATYYCQQSYTTPPTFGQGTKVEIK
notes: Only the six HVRs are tied to the clone; also called clone 152.26; anti-DLL4 antibody
B2: YW26.14 (antibody, V domains shown)
VH: B1 VH with T28S, T30R
VL: B1 VL with Y92V, T93N, T94G, P96A
notes: also called clone 152.26.14
B3: YW26.34 (antibody, V domains shown)
VH: B1 VH with V50L, N54T, D59I
VL: B1 VL with T94G, P96S
notes: Only the six HVRs are tied to the clone; also called clone 152.26.34
B4: YW26.6 (antibody, V domains shown)
VH: B1 VH with V50L, N54Q, T58S
VL: B1 VL with T94G, P95Q, P96S
notes: Only the six HVRs are tied to the clone; also called clone 152.26.6

Molecular target: T1, C-terminal His-tagged human DLL4 (amino acid 1-404) (human, UniProt Q9NR61 26-404)
T1 construct: range 26-404; the text calls it human DLL4-His; also called DLL4-His; human DLL4-His; not shown: C-terminal His tag
T1 sequence (Q9NR61 26-404 limits assumed): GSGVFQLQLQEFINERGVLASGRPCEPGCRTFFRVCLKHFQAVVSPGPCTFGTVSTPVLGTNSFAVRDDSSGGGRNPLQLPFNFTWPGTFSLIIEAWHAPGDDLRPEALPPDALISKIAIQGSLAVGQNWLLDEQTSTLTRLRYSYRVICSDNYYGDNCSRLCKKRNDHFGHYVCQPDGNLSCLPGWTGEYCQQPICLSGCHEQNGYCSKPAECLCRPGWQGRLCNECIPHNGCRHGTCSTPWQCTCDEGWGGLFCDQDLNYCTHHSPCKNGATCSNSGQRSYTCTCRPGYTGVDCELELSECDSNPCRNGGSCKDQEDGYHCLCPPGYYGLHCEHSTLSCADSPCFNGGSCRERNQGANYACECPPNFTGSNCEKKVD
Assay: SPR BIAcore-3000, antibody coupled to CM5 chip, DLL4-His injected, 25 C
Procedure: (§1) To determine the binding affinity of the anti-DLL4 Mabs, surface plasmon resonance (SRP) measurement with a BIAcore™-3000 was used (BIAcore, Inc., Piscataway, N.J.). Briefly, carboxymethylated dextran biosensor chips (CM5, BIAcore Inc.) were activated with N-ethyl-N′-(3-dimethylaminopropyl)-carbodiimide hydrochloride (EDC) and N-hydroxysuccinimide (NHS) according to the supplier's instructions. […] Next, IM ethanolamine was injected to block unreacted groups. […] Association rates (kon) and dissociation rates (koff) were calculated using a simple one-to-one Langmuir binding model (BIAcore Evaluation Software version 3.2). The equilibrium dissociation constant (Kd) was calculated as the ratio koff/kon.

Row | Kd | koff | kon | Binder
1 | 25 nM | 0.00074 s⁻¹ | 30000 M⁻¹ s⁻¹ | B1
2 | 0.37 nM | 6.6e-05 s⁻¹ | 180000 M⁻¹ s⁻¹ | B2
3 | 0.35 nM | 6.7e-05 s⁻¹ | 190000 M⁻¹ s⁻¹ | B3
4 | 0.25 nM | – | – | B4

Molecular target: T2, His-tagged murine DLL4 (murine, UniProt Q9JI71 27-405, limits assumed)
T2 construct: domain: ECD5.5; also called murine DLL4-His; murine Delta4 (ECD5.5); not shown: His tag
T2 sequence (Q9JI71 27-405 limits assumed): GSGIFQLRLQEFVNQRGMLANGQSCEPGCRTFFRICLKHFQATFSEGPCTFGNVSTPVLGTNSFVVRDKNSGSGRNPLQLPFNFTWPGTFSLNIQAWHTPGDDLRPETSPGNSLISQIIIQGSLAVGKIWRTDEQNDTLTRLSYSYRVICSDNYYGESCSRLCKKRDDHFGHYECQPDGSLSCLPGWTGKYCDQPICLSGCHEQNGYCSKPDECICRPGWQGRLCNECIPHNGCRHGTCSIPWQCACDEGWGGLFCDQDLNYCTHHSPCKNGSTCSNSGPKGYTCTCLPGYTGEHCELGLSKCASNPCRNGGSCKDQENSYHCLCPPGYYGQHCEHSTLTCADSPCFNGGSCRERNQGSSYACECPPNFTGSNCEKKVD
Assay: as above
Procedure: as §1

Row | Kd | koff | kon | Binder
5 | 28 nM | 0.0016 s⁻¹ | 57000 M⁻¹ s⁻¹ | B1
6 | 0.22 nM | 7.3e-05 s⁻¹ | 330000 M⁻¹ s⁻¹ | B2
7 | 0.18 nM | 6.5e-05 s⁻¹ | 360000 M⁻¹ s⁻¹ | B3

Source: patent publication US20080175847A1 (Genentech, published 2008)
